T1: recombinant human LAG-3-his protein (Novoprotein) (human, UniProt P18627 23-450)
T1 construct: Bought; also called huLAG-3; not shown: His tag
T1 sequence (looked up): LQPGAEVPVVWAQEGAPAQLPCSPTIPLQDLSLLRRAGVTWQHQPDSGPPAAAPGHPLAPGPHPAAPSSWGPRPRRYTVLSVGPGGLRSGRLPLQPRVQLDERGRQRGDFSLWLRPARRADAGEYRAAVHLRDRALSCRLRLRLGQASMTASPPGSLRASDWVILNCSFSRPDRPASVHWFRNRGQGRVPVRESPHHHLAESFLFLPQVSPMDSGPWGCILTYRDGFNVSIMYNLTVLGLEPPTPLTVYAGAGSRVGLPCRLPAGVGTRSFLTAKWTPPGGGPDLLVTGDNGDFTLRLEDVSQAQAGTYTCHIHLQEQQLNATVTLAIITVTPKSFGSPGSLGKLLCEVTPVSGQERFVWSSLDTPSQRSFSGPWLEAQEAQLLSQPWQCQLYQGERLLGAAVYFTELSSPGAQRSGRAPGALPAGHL


Legend:
[1] = biological target: T2, human PD-1-His protein (human, UniProt Q15116 25-167, limits assumed); test: SPR Biacore
T2 construct: also called huPD-1; not shown: His tag

[2] = biological target: T1, recombinant human LAG-3-his protein …; test: BLI Octet, FIT-Ig captured, antigen analyte
[3] = biological target: T2, human PD-1-His protein; test: BLI Octet, FIT-Ig captured, antigen analyte
[4] = biological target: T3, human PD-1 expressed on cells (human, UniProt Q15116 25-288); test: cell RBA FACS; competitor PD-L1/Fc
T3 construct: whole, on cells; also called CHO-K1/huPD-1; CHO-K1-hPD-1 cells

[5] = biological target: T3, human PD-1 expressed on cells; test: cell RBA FACS; competitor PD-L2/Fc

T2 sequence (Q15116 25-167 limits assumed): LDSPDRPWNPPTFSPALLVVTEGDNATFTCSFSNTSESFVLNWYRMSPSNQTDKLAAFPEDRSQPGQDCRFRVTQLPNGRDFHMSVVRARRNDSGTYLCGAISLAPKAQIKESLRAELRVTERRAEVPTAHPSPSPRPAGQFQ
T3 sequence (Q15116 25-288): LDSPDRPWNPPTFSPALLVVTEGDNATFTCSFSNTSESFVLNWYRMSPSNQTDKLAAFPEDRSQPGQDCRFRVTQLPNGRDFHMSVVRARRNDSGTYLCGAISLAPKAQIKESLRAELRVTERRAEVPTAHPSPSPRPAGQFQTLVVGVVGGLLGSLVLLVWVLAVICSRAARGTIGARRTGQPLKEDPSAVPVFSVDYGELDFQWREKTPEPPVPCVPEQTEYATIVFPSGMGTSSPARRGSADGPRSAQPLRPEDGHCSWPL

Row | Kd [1] | koff [1] | kon [1] | IC50 [4] | IC50 [5] | Binder | other results
1 | 2.68 nM | 0.000966 s⁻¹ | 359000 M⁻¹ s⁻¹ | – | – | mAb703c (antibody, V domains shown) VH: DVQLQESGPGLVKPSQSLSLTCSVTGYSITTGYYWNWIRQFPGNKLEWMGYMSYDGNNNYNPSLKNRISITRDTSKNQFLLRLNSVTTEDTATYFCARDRGTTILGGTMDYWGQGTSVTVS VL: SIVMTQTPKFLFVSAGDRVTIACKASQSVSNDVAWYQQKPGQSPKLLIYYAFYRYTGVPDRFTGSGYGTDFTFTISTVQAEDLAVYFCQQDYSSPWTFGGGTKLEIK | –
2 | – | – | – | – | – | FIT107-1-7a-1 (bispecific antibody, human IgG1, kappa, L234A L235A, FIT-Ig hexamer; outer anti-PD-1 (HumAb713-7), inner anti-LAG-3 (HumAb747V-67 with G55A)) chain 1: not shown chain 2: EVQLVESGGGLVQPGGSLRLSCAASGFTSSDYGMHWVRQAPGKGLEWVSYISSGSYTIYYADTVKGRFTISRDNAKNSLYLQMNSLRDEDTAVYYCAKRGGSSHVNVMDYWGQGTTVTVSSASTKGPSVFPLAPSSKSTSGGTAALGCLVKDYFPEPVTVSWNSGALTSGVHTFPAVLQSSGLYSLSSVVTVPSSSLGTQTYICNVNHKPSNTKVDKKVEPKSC chain 3: DIQMTQSPSSLSASVGDRVTITCRASQEISGYLSWLQQKPGGAIKRLIYAASALDSGVPSRFSGSRSGSDYTLTISSLQPEDFADYYCLQYASYPLTFGQGTKLELKRTVAAPSVFIFPPSDEQLKSGTASVVCLLNNFYPREAKVQWKVDNALQSGNSQESVTEQDSKDSTYSLSSTLTLSKADYEKHKVYACEVTHQGLSSPVTKSFNRGEC | Kd [2]: 0.732 nM; koff [2]: 0.000124 s⁻¹; kon [2]: 169000 M⁻¹ s⁻¹; Kd [3]: 3.04 nM; koff [3]: 0.000538 s⁻¹; kon [3]: 177000 M⁻¹ s⁻¹
3 | – | – | – | – | – | FIT107-1-7a-2 (bispecific antibody, human IgG1, kappa, L234A L235A, FIT-Ig hexamer; outer anti-PD-1 (HumAb713-7), inner anti-LAG-3 (HumAb747V-72 with G55A)) chain 1: not shown chain 2: EVQLVESGGGLVQPGGSLRLSCAASGFTSSDYGMHWVRQAPGKGLEWVSYISSGSYTIYYADTVKGRFTISRDNAKNSLYLQMNSLRDEDTAVYYCAKRGGSSHVNVMDYWGQGTTVTVSSASTKGPSVFPLAPSSKSTSGGTAALGCLVKDYFPEPVTVSWNSGALTSGVHTFPAVLQSSGLYSLSSVVTVPSSSLGTQTYICNVNHKPSNTKVDKKVEPKSC chain 3: DIQMTQSPSSLSASVGDRVTITCRASQEISGYLSWLQQKPGGAIKRLIYAASALDLGVPSRFSGSRSGSDYTLTISSLQPEDFADYYCLQYASYPLTFGQGTKLELKRTVAAPSVFIFPPSDEQLKSGTASVVCLLNNFYPREAKVQWKVDNALQSGNSQESVTEQDSKDSTYSLSSTLTLSKADYEKHKVYACEVTHQGLSSPVTKSFNRGEC | Kd [2]: 1.22 nM; koff [2]: 0.000128 s⁻¹; kon [2]: 105000 M⁻¹ s⁻¹; Kd [3]: 3.17 nM; koff [3]: 0.000526 s⁻¹; kon [3]: 166000 M⁻¹ s⁻¹
4 | – | – | – | – | – | FIT107-1-7a-3 (bispecific antibody, human IgG1, kappa, L234A L235A, FIT-Ig hexamer) chain 1: not shown chain 2: EVQLVESGGGLVQPGGSLRLSCAASGFTSSDYGMHWVRQAPGKGLEWVSYISSGSYTIYYADTVKGRFTISRDNAKNSLYLQMNSLRDEDTAVYYCAKRGGSSHVNVMDYWGQGTTVTVSSASTKGPSVFPLAPSSKSTSGGTAALGCLVKDYFPEPVTVSWNSGALTSGVHTFPAVLQSSGLYSLSSVVTVPSSSLGTQTYICNVNHKPSNTKVDKKVEPKSC chain 3: DIQMTQSPSSLSASVGDRVTITCRASQEISGYLSWLQQKPGGAIKRLIYAASTLDSGVPSRFSGSRSGSDYTLTISSLQPEDFADYYCLQYASYPLTFGQGTKLELKRTVAAPSVFIFPPSDEQLKSGTASVVCLLNNFYPREAKVQWKVDNALQSGNSQESVTEQDSKDSTYSLSSTLTLSKADYEKHKVYACEVTHQGLSSPVTKSFNRGEC | Kd [2]: 1.47 nM; koff [2]: 0.000134 s⁻¹; kon [2]: 91000 M⁻¹ s⁻¹; Kd [3]: 3.01 nM; koff [3]: 0.000628 s⁻¹; kon [3]: 208000 M⁻¹ s⁻¹
5 | – | – | – | – | – | FIT107-1-7b-2 (bispecific antibody, human IgG1, kappa, L234A L235A, FIT-Ig hexamer; outer anti-LAG-3 (HumAb747V-72 with G55A), inner anti-PD-1 (HumAb713-7)) chain 1: not shown chain 2: EVQLVQSGAEVKKPGATVKLSCTASGFNIKDDYMHWVKQRPEQGLDWIGWIVPRNANTVYASKFQGKATITADTSTNTAYLELSSLRSEDTAVYYCTVYGDYWGQGTTVTVSSASTKGPSVFPLAPSSKSTSGGTAALGCLVKDYFPEPVTVSWNSGALTSGVHTFPAVLQSSGLYSLSSVVTVPSSSLGTQTYICNVNHKPSNTKVDKKVEPKSC chain 3: not shown | Kd [2]: 1.41 nM; koff [2]: 0.000246 s⁻¹; kon [2]: 174000 M⁻¹ s⁻¹; Kd [3]: 7.9 nM; koff [3]: 0.000827 s⁻¹; kon [3]: 105000 M⁻¹ s⁻¹
6 | – | – | – | 1.04 nM | 1.46 nM | HumAb713-6 (antibody, human IgG1, kappa, L234A L235A, V domains shown, humanized mAb713; also called HurnAb713-6) VH: EVQLVESGGGLVQPGGSLRLSCAASGFTFSDYGMHWVRQAPGKGLEWVSYISSGSYTIYYADTVKGRFTISRDNAKNSLYLQMNSLRDEDTAVYYCAKRGGSSHVNVMDYWGQGTTVTVSS VL: DIQMTQSPSSLSASVGDRVTITCKASDHINNWLAWYQQKPGKAPKLLIYGATSLETGVPSRFSGSGSGTDYTFTISSLQPEDIATYYCQQYWSPPYTFGGGTKVEIKR | –
7 | – | – | – | 1.06 nM | 2.24 nM | HumAb713-4 (antibody, human IgG1, kappa, L234A L235A, V domains shown, humanized mAb713) VH: EVQLVESGGGLVQPGGSLRLSCAASGFTSSDYGMHWVRQAPGKGLEWVAYISSGSYTIYYADTVKGRFTISRDNAKNSLYLQMNSLRDEDTAVYYCAKRGGSSHVNVMDYWGQGTTVTVSS VL: DIQMTQSPSSLSASVGDRVTITCKASDHINNWLAWYQQKPGKAPKLLIYGATSLETGVPSRFSGSGSGTDFTFTISSLQPEDIATYYCQQYWSPPYTFGGGTKVEIKR | –
8 | – | – | – | 1.05 nM | 1.91 nM | HumAb713-8 (antibody, human IgG1, kappa, L234A L235A, V domains shown, humanized mAb713; also called HurnAb713-8) VH: EVQLVESGGGLVQPGGSLRLSCAASGFTSSDYGMHWVRQAPGKGLEWVAYISSGSYTIYYADTVKGRFTISRDNAKNSLYLQMNSLRDEDTAVYYCAKRGGSSHVNVMDYWGQGTTVTVSS VL: DIQMTQSPSSLSASVGDRVTITCKASDHINNWLAWYQQKPGKAPKLLIYGATSLETGVPSRFSGSGSGTDYTFTISSLQPEDIATYYCQQYWSPPYTFGGGTKVEIKR | –
9 | – | – | – | 0.91 nM | 2.95 nM | HumAb713-5 (antibody, human IgG1, kappa, L234A L235A, V domains shown, humanized mAb713) VH: EVQLVESGGGLVQPGGSLRLSCAASGFTFSDYGMHWVRQAPGKGLEWVSYISSGSYTIYYADTVKGRFTISRDNAKNSLYLQMNSLRDEDTAVYYCARRGGSSHVNVMDYWGQGTTVTVSS VL: DIQMTQSPSSLSASVGDRVTITCKASDHINNWLAWYQQKPGKAPKLLIYGATSLETGVPSRFSGSGSGTDYTFTISSLQPEDIATYYCQQYWSPPYTFGGGTKVEIKR | –
10 | – | – | – | 1.71 nM | 3.13 nM | HumAb713-2 (antibody, human IgG1, kappa, L234A L235A, V domains shown, humanized mAb713) VH: EVQLVESGGGLVQPGGSLRLSCAASGFTFSDYGMHWVRQAPGKGLEWVSYISSGSYTIYYADTVKGRFTISRDNAKNSLYLQMNSLRDEDTAVYYCAKRGGSSHVNVMDYWGQGTTVTVSS VL: DIQMTQSPSSLSASVGDRVTITCKASDHINNWLAWYQQKPGKAPKLLIYGATSLETGVPSRFSGSGSGTDFTFTISSLQPEDIATYYCQQYWSPPYTFGGGTKVEIKR | –
11 | 9 nM | 0.00159 s⁻¹ | 177000 M⁻¹ s⁻¹ | – | – | HumAb703-12 (antibody, human IgG1, kappa, L234A L235A, V domains shown, humanized mAb703) VH: EVQLQESGPGLVKPSETLSLTCAVSGYSISTGYYWNWIRQPPGKGLEWIGYMSYDGNNNYNPSLKNRITISRDTSKNQFSLKLSSVTAADTAVYYCARDRGTTILGGTMDYWGQGTTVTVSS VL: DIQMTQSPSSLSASVGDRVTITCKASQSVSNDVAWYQQKPGKAPKLLIYYAFYRYTGVPDRFSGSGYGTDFTLTISSLQPEDFATYYCQQDYSSPWTFGGGTKVEIKR | –
12 | 18.9 nM | 0.00124 s⁻¹ | 65700 M⁻¹ s⁻¹ | – | – | HumAb703-18 (antibody, human IgG1, kappa, L234A L235A, V domains shown, humanized mAb703) VH: EVQLQESGPGLVKPSETLSLTCAVSGYSISTGYYWNWIRQPPGKGLEWMGYMSYDGNNNYNPSLKNRITISRDTSKNQFSLKLSSVTAADTAVYYCARDRGTTILGGTMDYWGQGTTVTVSS VL: DIQMTQSPSSLSASVGDRVTITCKASQSVSNDVAWYQQKPGKSPKLLIYYAFYRYTGVPDRFSGSGYGTDFTLTISSLQPEDFATYFCQQDYSSPWTFGGGTKVEIKR | –
13 | 6.94 nM | 0.00159 s⁻¹ | 229000 M⁻¹ s⁻¹ | – | – | HumAb703-22 (antibody, human IgG1, kappa, L234A L235A, V domains shown, humanized mAb703; also called HurnAb703-22) VH: EVQLQESGPGLVKPSETLSLTCAVSGYSISTGYYWNWIRQPPGKGLEWIGYMSYDGNNNYNPSLKNRITISRDTSKNQFSLKLSSVTAADTAVYYCARDRGTTILGGTMDYWGQGTTVTVSS VL: SIVMTQSPSSLSASVGDRVTITCKASQSVSNDVAWYQQKPGKSPKLLIYYAFYRYTGVPDRFTGSGYGTDFTLTISSLQPEDFATYFCQQDYSSPWTFGGGTKVEIKR | –
14 | 10.6 nM | 0.00154 s⁻¹ | 145000 M⁻¹ s⁻¹ | – | – | HumAb703-13 (antibody, human IgG1, kappa, L234A L235A, V domains shown, humanized mAb703) VH: EVQLQESGPGLVKPSETLSLTCAVSGYSISTGYYWNWIRQPPGKGLEWMGYMSYDGNNNYNPSLKNRITISRDTSKNQFSLKLSSVTAADTAVYYCARDRGTTILGGTMDYWGQGTTVTVSS VL: DIQMTQSPSSLSASVGDRVTITCKASQSVSNDVAWYQQKPGKAPKLLIYYAFYRYTGVPDRFSGSGYGTDFTLTISSLQPEDFATYYCQQDYSSPWTFGGGTKVEIKR | –
15 | 9.37 nM | 0.00176 s⁻¹ | 187000 M⁻¹ s⁻¹ | – | – | HumAb703-11 (antibody, human IgG1, kappa, L234A L235A, V domains shown, humanized mAb703) VH: EVQLQESGPGLVKPSETLSLTCAVSGYSISTGYYWNWIRQPPGKGLEWIGYMSYDGNNNYNPSLKNRVTISRDTSKNQFSLKLSSVTAADTAVYYCARDRGTTILGGTMDYWGQGTTVTVSS VL: DIQMTQSPSSLSASVGDRVTITCKASQSVSNDVAWYQQKPGKAPKLLIYYAFYRYTGVPDRFSGSGYGTDFTLTISSLQPEDFATYYCQQDYSSPWTFGGGTKVEIKR | –

From patent publication US20210188980A1 (SHANGHAI EPIMAB BIOTHERAPEUTICS, published 2021)
